What follows are sequences tested on Saccharomyces cerevisiae (assay: transcriptional activation domain activity (GFP:mCherry ratio, weighted mean of sorted bins, harmonized to initial dataset scale) (arbitrary fluorescence ratio units); higher = stronger transcriptional activation). Details: beta-estradiol 1 µM; induction time 4 h.
Method in brief: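 Protein tiles carrying barcodes and fused to an estradiol-inducible synthetic transcription factor were placed at the URA3 locus of yeast diploids with a GFP reporter. Following 4 hours at 30 °C in SC with 1 uM beta-estradiol, cells were sorted into 8 GFP:mCherry bins, barcodes were sequenced, and tiles with fewer than 50 reads were discarded. Activation activity is given as the read-weighted mean of bin median fluorescence, averaged across barcodes and linearly mapped to the initial dataset scale.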

Row | Sequence | transcriptional activation domain activity
1 | MGIRYHWLVFFCPFFSFTFASCFVLFVGMLFCFIILDYGCFSFLPLWFFFCPE | 18700
2 | MFKSVFCLFSVLSFLLFHACFIYHSFFSFLFLLMMKLLLWLCATFATKWLFFC | 69500
3 | RTSDRYLETLDALFVDKFVYAHAWTTFMSTCLKTWRRDCCSSAMLLLLHILCF | 54900
4 | MSFRFPTLFFFSLTLFLVSPFWFYLLFSVFFFLISLVFLESHFFCLGSINTLY | 39800
5 | GGEGGAARNGRKRAENARRGREGGKERGPGNKTVAGQEAGGRGHREDRGGSDR | 40500
6 | GERGRGGEEERRGRGRGRGREEREREKERRERERRRRREEEEERGEEERRGRR | 29400
7 | GIHETLSFYFVFVCFLYGLRSMALMIGLTGALFLLFMDMLVFGMATAVLIDYG | 50700
8 | EHHLLKALVDVIKRAMLISAQGASGRFEAKDLHLEHMIYWLKYFLNRAVCIAL | 62700
9 | LVHFILTGSDFIWFFSYTPEAVALYLFLVEWSKLNYFWVALMYIWNVMPLFLL | 63600
10 | MNFFFCMRSWTLLCYPKTGLLFFILCFFSSALSILSPPPCIFFFFFFLSRVCC | 45100
11 | SWFDIDEENGDVISRLEWYHLVQMSLVHATILIWWTTGKVLININVSMAVRCG | 54100
12 | LSTLFYIFCRYALVANFLYSLSIIKGSHIINCDIGYMICGVLSIFGHIGIIAV | 49800
13 | LQASREEIRKKVSEDDHGLTRFRRQVVLALDLYIWEPICISLRFLRLVMIFVP | 52400
14 | YIPEHLRSYVLVAHLLEMCNLHTVFLPQLLDPLIVLCLQHRLTIQAFAFIKTR | 77300
15 | EKAGEEEKAGEEEKAAEEEKSAEEEKAAKEEEMKAMEKSKAEKEASSEEPKAE | 35700
16 | MDDTDSSAAGGARWIVVSTGGRAQSPEDEAGLRRVKGACRARQNKSKNAILIH | 47100
17 | MRAAPKYITFFLCYGSWFTSMTRGLSCPCWVYFIGHVSIVVVVVFFTFVYIHG | 38800
18 | KTQDESKPADGASTEQPAKKKRKRKQKRAQDGEGGEGAAAVGGGGGGEETQKA | 33200
19 | AAGGSSSQAQITVNPGAKAEEEAEEDEGQLVQRMARRGIKSHVFVGSEIVQIP | 33900
20 | TFVRLVMLIAMKVFKFDFLVLSYLATIVYSVCFLTYLCDWHSIFPFAWYHHIY | 47000
21 | TNLLDRFQTYMERSRFHLLDLLFDFSSHFSAPLMKLAMQHARRWRRFSIFAFW | 45100

Row | Sequence | transcriptional activation domain activity
22 | SKTAGPSSNSPSQTGKDDKAAASSSTSAGGAPAATGRVIAGLAAGVAMGLAAA | 37700
23 | TKPAEASAADKKPEEAKPAEAPAPAAAPAAAEAPKAEEKPAPAPAPTEAPKAE | 21400
24 | RADADAAASGGHDRRRKRARSDASPSDGHASDASTARRERSSRRSSRSHPRHA | 18500
25 | MWFLHPLPFPLASSTWLHFVVLSFYIFFFLPFPSCALVLFWCWFFLLVRLLTS | 39400
26 | IIDKLGSLTFVYARRNPITIGTFAATETAILEHYGAGNIWKYILWHWVICFYS | 44400
27 | FFCSLFVSPVTLFFIFYSYCKRSFAISLLLMITIYWSFLLGLTASILVYRIWL | 57500
28 | ATIMYLGLCITFLPFLVIYVIYNICSAFYVVLLGLGLLVYWLTRNSRLLKWAF | 45800
29 | REGEERERDGRRTSTGRRARGKGRRSRRKEGKRENRKERERKEGKEGPGQRRR | 26700
30 | MIWRYVWYTLVLGCLFCCRPNYSLLVPNTIDLHRLWLGFRFQILFVAWGVYLV | 58900
31 | VSMMQRILNIVCILPSLLERYDTLVALSETSNLGEVERLWIDCHAFLTNLRIW | 62400
32 | MCKKGKGVAIGPLSLSWFFNLSLVIFSLLSSLQSLWFLPWPLNFVLMVPVHFV | 79900
33 | RMIGLPILLWLGTLTCQIGLLVLLRSVVFGQTNSGNVLPWGLGFWALTISTNI | 71800
34 | PSPPKCQVPTLYAVIFRILAYLRLLDAFLFHVYILLTLHELWLIIWIPHHHQS | 41400
35 | ADTILITMVGIFDLIACFFTCIVQVLRFKMGISVQEILIWCWFDLLIFSTSTF | 34300
36 | EGPPSPDKGKAEDEKNEKPQANTAKKAKPTEEKKVGEGKKAAAGTGGAGAKKE | 23200
37 | SLSFTPPHSNPPSPSFLLPFPLPFLLPFPPLSFPFPPPFAFPFTPFPPFPFSP | 38700
38 | FVLYFFFFFFLFFFFASGLVFFIRLFFFCAVFSASPYSCCCYYFNCAYPIYVL | 55700
39 | NQRLREDGVDEIELDIISKLHPSRKDTAPRDIKPIPASKRGEISSKFEKLHEQ | < 6570
40 | DLSKATKEVKEGGERKAAKGERETEQEKVEEGVKKLAVVDKKGGKNKTETNGS | 17700
41 | SSGGDSGGDDTTTTTKKSRPRHHHLAHHHLHHLHHLHYLHHFHHHTHQHDDHL | 22900
42 | DLLLEGYDTNRLLVVIPFTCKVLEQAAKSMVFKPPNPWLMAIVKLLAELYLYA | 73900

Row | Sequence | transcriptional activation domain activity
43 | WLSHSKKKTCDVCKHPYSFTKVYAEDMPSRLPLVLLLRKLIEQVFYTALFCIR | 54100
44 | LYVIIFPILYFSLLLFYFFSSCGGVGWWAVGWHGVLCFFVLLGWVGLGGCCLC | 35900
45 | MASEQVEEVTKKVADVAIEAPAAAPAKAPKAPKAPKAKKAKKEAAEGSSPLEL | 13700
46 | AVWGTGYGKYFVLVLCLFAGINITSCWVLIKYLGGLTWCTLFFKNRLLWINFV | 60400
47 | VCVCVWELVLVLVVWCCHCFSFVHSLHFLPWLLFSSPLVFLFPFPFFFFCLFL | 68600
48 | ETCGRCRGQGVVIQKAQLAPGIFQQMQMQCDQCGGQGTQIKHRCKVCGGARVV | 52100
49 | NSFPKECEVVHEELRKLTHLVSALPREGLLYHGRLILRYLETVVCACLIMFDG | 71100
50 | DSDEEDESELETDSESETGGIPIHESLSGAKSEDADKNERTIFIGNITVTAVQ | 46400
51 | ITWSQLRRRFTPGFETFLDIGIERGWYSCNNTLQVMVFRWVFIPWLQQELSAY | 30600
52 | SPWSLPHLESKFVEDGLYYAIQVISYISKINSKASYYYYQIRMLLVASRFIMQ | 46000
53 | GLGFFFSFSLFNFFLHASSLYLLFLVTLLDLHYIFLVLSLTLFRVYVCFISAP | 43400
54 | MSDHRIIIVLAFFLIFFFNPPPLPLPTYPYQYSLLTYSLFFEPFFFSFPFFFS | 63100
55 | AAPAASKAAPAAASPEKKEKAKPGKKEREAAKAAAAAAPPKASASSSSAPEQA | 18300
56 | PPPPPPPPPPGRGGAGHPPPPPPPPPPPAGGGGGPPPPPPPPPPSGGAPPPPP | < 6570
57 | LPGGKYLFMVMKNNGGGSEKFALVLFDVEAQMTLLKASRILLLRARYITPKTT | 51400
58 | KDDRDDRDRRGGDDRREDREERRGGEDRGEDRGGEGRRDSRQEGGANREPSPS | 23700
59 | PVKADEPAAPVEAVKETETAAPVEDAAAPEVAAEAPKEEVKEEKVRSLRTAIS | 27300
60 | VDFVKHLISCFSVVGEDNFACTLKGFGWMYLTHVYFFFNVFVALNLQLIILLS | 60000
61 | MLVRCPHLILNHKMPVLYLLFYLHIFHSLLLPFCIYASFFSFILFYQIGIFLL | 48400
62 | APDAKTVLPIPELDDAVVESFFSSSTDSTPMFEYENLEDNSKEWTSLFDNDIP | 137000
63 | MGFEVIFFFLLLGFFIQLLFILLIILLFLLFLVFLLFCYFVILFRLCACMMLY | 47900

Row | Sequence | transcriptional activation domain activity
64 | LLQKVAIQHYHTGLRALIPWSQLTVLVIASIPSQQCVRVLALAVNLLYCEFAI | 67000
65 | YRHLKPIMISSPVFCYLQLLGLIMCYLSLLVKVGKPSPSICISRQFLLPMGFV | 43200
66 | NNNYNNVSGKNNNNNNITNNSNNNHNNNNNDNNNNNNNNNNNNNNNNNSGNSS | 49500
67 | SAFDLADAIEKQSVSKLEKFSTTALSLELNCLVCLIKVLLKMYLSSDPAFEPY | 42200
68 | WLFCFICYPLPLHPISYQIAPPFYSIFFVILLTIVFFLLLFLFVSSFLYLRLG | 70000
69 | MREGWVWISEYRVLCLYFFFFLFLFFSNSFFFSPIYLFLFFTLFLVCLLCFRP | 53400
70 | MTSWPLLPPYSIHAMIKMIAFSSLFCSFFSLHLFFYYYLPLYIAVFIFFIVTH | 32400
71 | MTCFVCNPFLLCAKVFVFFSVSWWVVLSSLFWGCFLMYVFLLFPIKMFLRFCS | 61000
72 | KKKEEGKKRKRKRGKGRGRREKEERRKRGKEKGRRKERGKGKKKKESWGWRKG | 42000
73 | SFLSPFCRWVGGSFFVIIWSLFFLSLLFSPPCQPGFISWSFWTAGFLVFFFLF | 46500
74 | MSYIRSCLSFSPFFSFLFLFLPFFFLSFLPFSMCFLCKAFECLFVGGIKHMEH | 37400
75 | HSQYMGYFGGYLVCHLWFTHRFVGMLRLGVVDVVWRFCVYLGLVGWSLGVCYS | 72500
76 | RLLRNLPLIAGHGPKYLQGIDKFVENEFLTVVGTWMRATKFDVLSFMIHYVTL | 65500
77 | AKYVTTSMEVTPVTFGTYRTVFLPNGGLFFAILTTIRDFVTRHGLHSKIAMIF | 54300
78 | VTQLIRDARRLLTCVRTGFVFYLGTCMALTCLQMISFCTVLPPILTGYQILWV | 63000
79 | DEDATNENMSGPAMDVDEARNFINARLDLLKRTLHPNPIVVTAQLLKAVWAAY | 36200
80 | ADSDRHKKHKSSSSSSKSRHHDRDDDRDDNDKHSRRSHHKSSSSRHDRDRERG | 46300
81 | RLETLHKCIVTYLWLSYRFANLVGSRKVATYAKEITENVIEKTLMEFTWTRWA | 52000
82 | MAGRKRAAAEDTTEKRETRSSKVAKTEGTKTAGKAAKGTARLKARLIISLTIL | 34500
83 | RAYQQPILEYCRDAIDKESATTLSDERTVSKDDAEAKYSRVISACISLLASLL | 30600

From the supplement of paper PMC12636428
